From article PMC5650642

Legend:
[1] = molecular target: His-ToxR (Vibrio parahaemolyticus RIMD2210633) (UniProt Q05938); test: DNase I footprinting
[2] = molecular target: T1, His-OpaR (Vibrio parahaemolyticus RIMD2210633) (UniProt Q79YV4); test: DNase I footprinting
T1 sequence: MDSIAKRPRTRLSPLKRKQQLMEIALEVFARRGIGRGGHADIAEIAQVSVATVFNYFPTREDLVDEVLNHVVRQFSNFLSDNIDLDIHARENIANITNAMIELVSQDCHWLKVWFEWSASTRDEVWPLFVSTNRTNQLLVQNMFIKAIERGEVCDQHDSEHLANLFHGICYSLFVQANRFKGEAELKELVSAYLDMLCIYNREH

Sequence of UniProt Q05938 (Q05938 1-176): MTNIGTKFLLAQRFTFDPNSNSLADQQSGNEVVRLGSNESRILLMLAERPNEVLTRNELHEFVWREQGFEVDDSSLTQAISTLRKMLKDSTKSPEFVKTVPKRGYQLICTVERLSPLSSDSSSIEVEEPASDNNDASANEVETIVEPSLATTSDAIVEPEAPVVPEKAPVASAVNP

| Sequence | binding [1] | binding [2] |
| --- | --- | --- |
| ACACTTTGCACTCTTTTATGGAACAAATATTATTAGACCGAAATAATATTTGCTGAAACATCCTTGTTTCAAGGGTAGTATTTAAAACGAACAGTAAGCCTATTATTTTAGTTATAATTACTAAGTTATTAGACTCTTTGACTTACGCTTTCACTACCTGAATTACGTTGTTTTAGAAATTAAAATTTCAACAACGTAATATGACTTCATTTTCATTATATATTTCGACAAAGAATGATTAGCACGC (double strand) [VP1400 footprinting fragment] | binds | binds |
| ATTCTCCACAACCAACATCGTAAACATGGTTGCGGTGACGTTTAAGCTGATAAGGCTTACAAGTACGATTTGGTGTGCTAATGCTACTAATTTAATTCATAACATTCAATCACATAGAAAACTTCCAGAAAACCGAAATGCCCGAGAAATAACAAAACCACAGGTTATTTGGTTGTTTTAACTATCAATTCAAACTTATTACCCTTCAATCCAACTCAAAAGGCAGGCTTTAAGCAAAAACAGTTTTTTACTTTTGGGCAGAAGTTAACAAATTCAA (double strand) [VP1388 footprinting fragment] | – | binds |
| CGCTTGGATTACTTTCATCGATCGGTCTTCTTGTGAAGTCGCTGAAAAACATAATGTTAAGTTCCAACTGAGTTGATAATAAAATAATAAAGATAGATTTTTTTATTGTATTCGCCTGCTATGCCAAATGACATGCAATGCATTTTTTCTGATTTTATAGATAAAAAAAGATTTTTAGACAATAAAAAGCCGATAAATCTAATTAAAATCCATTTTGTGTGATCTTTGTTCCTAAT (double strand) [VP1409 footprinting fragment(s)] | binds | binds |
